Target: T1, EccB5 (encoded by the Rv1782c gene), spotted on the Mtb proteome microarray (Mycobacterium tuberculosis, UniProt P9WNQ9 1-506)
T1 sequence: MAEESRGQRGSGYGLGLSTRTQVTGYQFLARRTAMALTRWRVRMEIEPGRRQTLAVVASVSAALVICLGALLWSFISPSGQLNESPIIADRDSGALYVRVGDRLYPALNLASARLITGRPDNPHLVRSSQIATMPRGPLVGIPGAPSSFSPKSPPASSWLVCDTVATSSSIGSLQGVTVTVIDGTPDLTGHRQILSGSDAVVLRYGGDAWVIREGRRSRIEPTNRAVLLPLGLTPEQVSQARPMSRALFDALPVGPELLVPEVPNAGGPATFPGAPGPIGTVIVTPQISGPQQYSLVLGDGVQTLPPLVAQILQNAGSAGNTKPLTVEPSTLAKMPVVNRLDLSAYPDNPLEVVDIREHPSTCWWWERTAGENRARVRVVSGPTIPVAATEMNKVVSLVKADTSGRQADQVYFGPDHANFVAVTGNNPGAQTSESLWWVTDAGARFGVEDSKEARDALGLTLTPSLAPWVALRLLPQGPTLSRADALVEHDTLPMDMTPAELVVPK
Assay: peptide or protein array
Conditions: both partners purified

B1: recombinant human GSDMD protein (natural protein, UniProt P57764 1-484, looked up)
chain: MGSAFERVVRRVVQELDHGGEFIPVTSLQSSTGFQPYCLVVRKPSSSWFWKPRYKCVNLSIKDILEPDAAEPDVQRGRSFHFYDAMDGQIQGSVELAAPGQAKIAGGAAVSDSSSTSMNVYSLSVDPNTWQTLLHERHLRQPEHKVLQQLRSRGDNVYVVTEVLQTQKEVEVTRTHKREGSGRFSLPGATCLQGEGQGHLSQKKTVTIPSGSTLAFRVAQLVIDSDLDVLLFPDKKQRTFQPPATGHKRSTSEGAWPQLPSGLSMMRCLHNFLTDGVPAEGAFTEDFQGLRAEVETISKELELLDRELCQLLLEGLEGVLRDQLALRALEEALEQGQSLGPVEPLDGPAGAVLECLVLSSGMLVPELAIPVVYLLGALTMLSETQHKLLAEALESQTLLGPLELVGSLLEQSAPWQERSTMSLPPGLLGNSWGEGAPAWVLLDECGLELGEDTPHVCWEPQAQGRMCALYASLALLSGLSQEPH
notes: also called gasdermin D; recombinant GSDMD
- binding result: binds

Source: doi:10.1101/2025.05.13.653593 (bioRxiv, 2025)
